Experimental data reported in patent US20160008485A1 (Pfizer, published 2016).
Values joined by “and” are separate entries in the source; they are usually repeats but may differ in a detail not shown here. Equal entries are not always repeated. Where two headings read alike, the source gives them in different places.

T1: human 5T4 antigen on cells (MDAMB435/5T4 transfectants; MDA-MB-468) (human, UniProt Q13641 32-420)
T1 sequence (looked up): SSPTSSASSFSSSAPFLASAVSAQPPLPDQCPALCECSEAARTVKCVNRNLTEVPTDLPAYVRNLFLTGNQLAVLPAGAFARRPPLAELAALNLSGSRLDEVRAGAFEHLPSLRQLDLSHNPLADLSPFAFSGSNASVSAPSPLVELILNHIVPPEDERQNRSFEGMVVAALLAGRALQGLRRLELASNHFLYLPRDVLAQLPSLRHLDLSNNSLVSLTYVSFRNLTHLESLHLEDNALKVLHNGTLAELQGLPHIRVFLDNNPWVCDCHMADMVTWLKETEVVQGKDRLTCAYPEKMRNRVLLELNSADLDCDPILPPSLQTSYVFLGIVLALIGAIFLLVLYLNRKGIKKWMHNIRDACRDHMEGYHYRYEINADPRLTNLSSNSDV


Key:
human FcRn [1] = molecular target: T2, human FcRn (human, UniProt P55899 24-297; P61769 21-119, limits assumed, biotinylated through an engineered Avi-tag); assay: BIAcore SPR, steady state, pH 6.0, biotinylated human FcRn on SA chip
T2 construct: Immobilised on a streptavidin chip; not shown: engineered Avi-tag

human FcRn [2] = molecular target: T2, human FcRn; assay: as above; remark: listed apart in the source
Source text: Binding is detected by surface plasmon resonance (SPR) of laser light refracting from the surface. Human FcRn was specifically biotinylated through an engineered Avi-tag using the BirA reagent (Catalog #: BIRA500, Avidity, LLC, Aurora, Colo.) and immobilized onto a streptavidin (SA) sensor chip to enable uniform orientation of the FcRn protein on the sensor.

[3] = molecular target: T1, human 5T4 antigen on cells …; assay: cell-based or functional assay

T2 sequence (P55899 24-297 limits assumed, chain 1 of 2): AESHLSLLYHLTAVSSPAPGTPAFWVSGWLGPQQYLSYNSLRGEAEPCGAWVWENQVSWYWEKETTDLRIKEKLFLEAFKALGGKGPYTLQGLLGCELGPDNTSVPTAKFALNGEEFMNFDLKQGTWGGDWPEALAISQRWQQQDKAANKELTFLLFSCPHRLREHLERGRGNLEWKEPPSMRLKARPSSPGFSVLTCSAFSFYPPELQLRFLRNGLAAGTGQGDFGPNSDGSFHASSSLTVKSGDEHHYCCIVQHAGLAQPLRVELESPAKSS
T2 sequence (P61769 21-119 limits assumed, chain 2 of 2): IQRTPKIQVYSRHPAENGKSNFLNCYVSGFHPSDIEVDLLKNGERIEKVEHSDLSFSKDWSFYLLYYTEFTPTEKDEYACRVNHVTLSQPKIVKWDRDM

Row | Binder | Kd (human FcRn [1]) | Kd (human FcRn [2]) | IC50, growth inhibition (MTS), MDA-MB-468 cells (5T4 expression 2+) [3] | IC-50, growth inhibition (MTS), MDAMB435/5T4 cells (5T4 expression 3+) [3]
1 | parental anti-5T4 antibody (wild type human IgG1) (antibody, Humanized, human IgG1/kappa; also called Parental anti-5T4 Ab; wt IgG1) heavy: not shown light: DIQMTQSPSSLSASVGDRVTITCKASQSVSNDVAWYQQKPGKAPKLLIYFATNRYTGVPSRFSGSGYGTDFTLTISSLQPEDFATYYCQQDYSSPWTFGQGTKVEIKRTVAAPSVFIFPPSDEQLKSGTASVVCLLNNFYPREAKVQWKVDNALQSGNSQESVTEQDSKDSTYSLSSTLTLSKADYEKHKVYACEVTHQGLSSPVTKSFNRGEC | 412 nM | 493 nM | – | –
2 | 5T4-L398C-mcMMAD (antibody, human IgG1, kappa, mcMMAD on engineered Cys 398 (EU), Antibody-drug conjugate) heavy: not shown light: DIQMTQSPSSLSASVGDRVTITCKASQSVSNDVAWYQQKPGKAPKLLIYFATNRYTGVPSRFSGSGYGTDFTLTISSLQPEDFATYYCQQDYSSPWTFGQGTKVEIKRTVAAPSVFIFPPSDEQLKSGTASVVCLLNNFYPREAKVQWKVDNALQSGNSQESVTEQDSKDSTYSLSSTLTLSKADYEKHKVYACEVTHQGLSSPVTKSFNRGEC | – | 704 nM | 13 µg/mL | 160 ng ADC/ml
3 | 5T4-E380C-mcMMAD (antibody, human IgG1, kappa, mcMMAD on engineered Cys 380 (EU), Antibody-drug conjugate) heavy: not shown light: DIQMTQSPSSLSASVGDRVTITCKASQSVSNDVAWYQQKPGKAPKLLIYFATNRYTGVPSRFSGSGYGTDFTLTISSLQPEDFATYYCQQDYSSPWTFGQGTKVEIKRTVAAPSVFIFPPSDEQLKSGTASVVCLLNNFYPREAKVQWKVDNALQSGNSQESVTEQDSKDSTYSLSSTLTLSKADYEKHKVYACEVTHQGLSSPVTKSFNRGEC | – | 409 nM | 8.1 µg/mL | 170 ng ADC/ml
4 | 5T4-V422C-mcMMAD (antibody, human IgG1, kappa, mcMMAD on engineered Cys 422 (EU), Antibody-drug conjugate) heavy: not shown light: DIQMTQSPSSLSASVGDRVTITCKASQSVSNDVAWYQQKPGKAPKLLIYFATNRYTGVPSRFSGSGYGTDFTLTISSLQPEDFATYYCQQDYSSPWTFGQGTKVEIKRTVAAPSVFIFPPSDEQLKSGTASVVCLLNNFYPREAKVQWKVDNALQSGNSQESVTEQDSKDSTYSLSSTLTLSKADYEKHKVYACEVTHQGLSSPVTKSFNRGEC | – | 402 nM | 36 µg/mL | 270 ng ADC/ml
5 | 5T4-L443C-mcMMAD (antibody, mcMMAD on engineered Cys 443 (EU), Antibody-drug conjugate; also called 5T4-L443C-mcMMAD (1)) heavy: not shown light: DIQMTQSPSSLSASVGDRVTITCKASQSVSNDVAWYQQKPGKAPKLLIYFATNRYTGVPSRFSGSGYGTDFTLTISSLQPEDFATYYCQQDYSSPWTFGQGTKVEIKRTVAAPSVFIFPPSDEQLKSGTASVVCLLNNFYPREAKVQWKVDNALQSGNSQESVTEQDSKDSTYSLSSTLTLSKADYEKHKVYACEVTHQGLSSPVTKSFNRGEC | – | 697 nM and 518 nM | 20 µg/mL | 120 ng ADC/ml
